Results from patent US20160053025A1 (SAMSUNG ELECTRONICS, published 2016).

Assays:
[1] = molecular target: T1, Ang2 RBD N421A, FLAG-tagged (human, UniProt O15123 281-496, limits assumed); test: ELISA, antibody coated, FLAG-tagged mutant Ang2 RBD detected with anti-FLAG-HRP
T1 chain: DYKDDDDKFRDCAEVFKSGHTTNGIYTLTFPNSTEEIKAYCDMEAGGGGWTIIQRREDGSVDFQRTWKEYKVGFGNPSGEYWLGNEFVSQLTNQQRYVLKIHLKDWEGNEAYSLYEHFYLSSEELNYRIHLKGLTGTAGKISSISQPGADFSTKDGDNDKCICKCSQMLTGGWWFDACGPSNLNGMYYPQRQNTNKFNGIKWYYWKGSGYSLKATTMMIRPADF
Method: (§1) To verify the epitope (or specific binding site) of the anti-Ang2 antibody prepared in Reference Example 2.3, an ELISA was performed using a recombinant protein where a receptor binding domain (RBD) of Ang2 protein in the form of being tagged with Flag was mutated by artificial means.
(§2) Each well of a 96-well MaxiSorp™ flat-bottom plate (Nunc) was coated with 50 ul (microliter) of 1000 nM antibody. Then, the plate was washed five times with 0.05% (v/v) Tween-20-containing PBS (PBST) and blocked with 1% (v/v) BSA-containing PBS at a room temperature for 2 hours. 250 ng of each mutant Ang2 protein obtained by substituting S417, Q418, P419, N421, 1434, D448, A449, P452, Y460, N467, K468, or F469 residue of Ang2 protein tagged with a FLAG sequence ([…], Sigma) at its N-terminal with alanine was added to each well of the plate, which was then allowed to react at a room temperature for 2 hours.
(§3) Finally, 50 ul of TMB substrates (Cell signaling) was added to each well of the plate to induce color development at a room temperature for 3 min. and the reaction was ceased by the addition of 50 ul of Stop solution (Cell signaling) and then, OD450 values were measured on a plate reader (Molecular Devices). By comparing binding affinities with mutated Ang2 to those of unmutated Ang2, each epitope of Ang2 antibodies was identified. The obtained measurement results of the binding affinities (%) with mutant Ang2 against the binding affinity with the native Ang2 are shown in the following Table 13.

[2] = molecular target: T2, Ang2 RBD P452A, FLAG-tagged (human, UniProt O15123 281-496, limits assumed); test: as above
T2 chain: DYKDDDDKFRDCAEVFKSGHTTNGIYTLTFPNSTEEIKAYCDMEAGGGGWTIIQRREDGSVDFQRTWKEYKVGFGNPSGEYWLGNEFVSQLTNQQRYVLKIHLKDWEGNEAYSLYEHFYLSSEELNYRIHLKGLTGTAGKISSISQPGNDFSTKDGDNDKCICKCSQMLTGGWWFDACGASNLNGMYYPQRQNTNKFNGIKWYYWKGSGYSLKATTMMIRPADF
Method: as §1, §2, §3

[3] = molecular target: T3, Ang2 RBD K468A, FLAG-tagged (human, UniProt O15123 281-496, limits assumed); test: as above
T3 chain: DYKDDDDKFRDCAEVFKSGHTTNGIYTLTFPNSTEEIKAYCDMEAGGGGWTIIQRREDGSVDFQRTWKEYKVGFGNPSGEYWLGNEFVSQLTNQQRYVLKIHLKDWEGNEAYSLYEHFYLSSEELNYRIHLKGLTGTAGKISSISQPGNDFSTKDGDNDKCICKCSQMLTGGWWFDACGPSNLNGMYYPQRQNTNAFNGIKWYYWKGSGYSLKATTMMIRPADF
Method: as §1, §2, §3

[4] = molecular target: T4, recombinant hAng-2 (C-His, R&D Systems) (human, UniProt O15123 19-496); test: SPR, BIAcore T100; hAng-2 (C-His) captured by anti-His antibody on CM5, antibody as analyte
T4 construct: Bought protein; also called human Ang-2 protein; C-terminal histidine-tagged human Ang2 (R&D Systems); not shown: C-terminal His tag
T4 sequence: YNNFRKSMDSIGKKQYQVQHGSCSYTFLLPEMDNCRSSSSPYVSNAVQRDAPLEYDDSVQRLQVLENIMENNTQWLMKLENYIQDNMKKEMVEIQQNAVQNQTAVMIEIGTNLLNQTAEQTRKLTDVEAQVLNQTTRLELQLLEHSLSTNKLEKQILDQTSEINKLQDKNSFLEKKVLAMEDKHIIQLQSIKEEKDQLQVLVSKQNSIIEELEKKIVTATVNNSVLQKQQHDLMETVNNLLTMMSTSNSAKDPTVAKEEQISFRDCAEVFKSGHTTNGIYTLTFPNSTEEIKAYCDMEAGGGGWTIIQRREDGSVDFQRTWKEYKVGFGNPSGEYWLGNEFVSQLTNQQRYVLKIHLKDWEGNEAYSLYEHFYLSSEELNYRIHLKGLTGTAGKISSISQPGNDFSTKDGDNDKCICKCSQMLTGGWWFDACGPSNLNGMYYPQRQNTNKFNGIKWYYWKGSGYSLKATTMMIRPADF
Method: First, anti-His antibody was immobilized on a CM5 sensor chip (GE healthcare) up to 8,000 RU levels using a pH 5.0 acetate solution and an amine coupling kit (GE Healthcare). 6 μg/ml of a recombinant hAng-2 (C-His, R&D Systems) protein was flowed onto the chip to be captured at 100 to 200 RU levels.

hTie2-Fc (R&D Systems) = molecular target: T5, hTie2-Fc (R&D Systems) (human, UniProt Q02763 23-745); test: Complex ELISA: plate coated with Tie2-Fc (4 ug/ml), 10D6 2 ug/ml without Ang2, anti-mouse IgG-HRP, OD450
T5 construct: Bought fusion protein; also called hTie-2/Fc fusion protein; not shown: Fc of human IgG1
Method: A 96-well MaxiSorp™ flat-bottom plate (Nunc) was coated with 4 μg/ml of Tie2-Fc (R&D systems) or BSA (Sigma). Then, the plate was washed five times with 0.05% (v/v) Tween-20-containing PBS (Phosphate Buffer Saline) and blocked with 1% (v/v) BSA (Bovine serum albumin; Sigma)-containing PBS at a room temperature for 2 hours. […] After that, an anti-mouse IgG antibody (Sigma) conjugated with HRP diluted in 1% (v/v) BSA-containing PBS at a ratio of 1:5,000 (v/v) was added in an amount of 100 ul to each well to react at a room temperature for 1 hour and then, the plate was washed five times with PBST. Lastly, 100 ul (microliter) of TMB substrate (Cell Signaling) was added to each well of the plate to induce color development for 3 min. and then, the reaction was ceased by the addition of 100 ul of Stop solution (Cell Signaling) and OD450 values were measured on a plate reader (Molecular Devices).

T5 sequence (Q02763 23-745 limits assumed): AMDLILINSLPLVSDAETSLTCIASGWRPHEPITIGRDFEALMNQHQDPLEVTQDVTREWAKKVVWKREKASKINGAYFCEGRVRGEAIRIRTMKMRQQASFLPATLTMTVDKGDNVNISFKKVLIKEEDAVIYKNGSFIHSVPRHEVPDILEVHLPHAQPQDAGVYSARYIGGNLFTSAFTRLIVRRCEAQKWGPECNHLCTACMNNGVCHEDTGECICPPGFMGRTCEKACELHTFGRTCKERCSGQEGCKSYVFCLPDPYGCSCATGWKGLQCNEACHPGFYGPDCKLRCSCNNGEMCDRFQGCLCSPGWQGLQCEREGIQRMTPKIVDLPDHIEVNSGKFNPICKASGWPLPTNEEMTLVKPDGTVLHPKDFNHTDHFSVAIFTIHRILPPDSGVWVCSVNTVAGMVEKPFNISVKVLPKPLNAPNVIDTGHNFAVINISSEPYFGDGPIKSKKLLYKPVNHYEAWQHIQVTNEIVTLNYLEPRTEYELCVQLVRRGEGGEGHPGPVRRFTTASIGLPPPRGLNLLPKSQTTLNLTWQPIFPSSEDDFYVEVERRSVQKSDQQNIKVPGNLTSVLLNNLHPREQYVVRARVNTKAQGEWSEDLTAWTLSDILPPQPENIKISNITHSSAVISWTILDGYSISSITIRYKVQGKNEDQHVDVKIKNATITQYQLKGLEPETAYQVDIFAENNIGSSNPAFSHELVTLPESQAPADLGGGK

B1: SAIT-ANG2-AB-m10D6 (antibody, V domains shown)
VH: DVQLQESGPDLVKPSQSLSLTCTVTGYSITSDYAWNWIRQFPGNKLEWMGYINYSGNTDYNPSLKSRSSITRDTSKNQFFLQLNSVTTGDTATYYCARGNFEGAMDYWGQGTSVTVSS
VL: SIVMTQTPKFLLVSAGDRVTITCKASQSVSNDVAWYQQKPGQSPKLLIYYASNRYPGVPDRFTGSGYGTDFTFTISTVQAEDLAVYFCQQDYSSPWTFGGGTKLEIK
notes: Mouse monoclonal antibody purified from a hybridoma (KCLRF-BP-00295); it is not applied here; also called mouse antibody 10D6; 10D6 antibody
binding affinity (%) with mutant Ang2 against the binding affinity with the native Ang2 [1]: 109% | binding affinity (%) with mutant Ang2 against the binding affinity with the native Ang2 [2]: 102% | binding affinity (%) with mutant Ang2 against the binding affinity with the native Ang2 [3]: 110% | Kd [4]: 8 nM | binding result (hTie2-Fc (R&D Systems)): no binding (tested: 2 ug/ml)
